Measurements as given in PMC7954794, “Protein context shapes the specificity of SH3 domain-mediated interactions in vivo” (Nature Communications, 2021).

System: PPIs identified as affected by the SH3 domain deletions
Experiment: Liquid DHFR-PCA low-throughput validation of PPIs affected by SH3 deletion (Fig. S1D-E)
Format: cell-based, Saccharomyces cerevisiae
Settings: label = prey, liquid DHFR-PCA, prey _1 = lost, _2 = gained in screen
Method in brief: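 Yeast diploids from DHFR-PCA mating grown 48 h in synthetic complete MSG medium pH 6.0 with NAT and HPH, normalized to 1 OD and diluted to 0.1 OD in liquid PCA selection medium. Growth followed by OD every 15 min for 72 h at 30 °C.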

| Molecule | Ratio (Deletedscore / WTscore) (bait BBC1) | Ratio (Deletedscore / WTscore) (bait BEM1-2) | Ratio (Deletedscore / WTscore) (bait MYO3) | Ratio (Deletedscore / WTscore) (bait LSB1) | Ratio (Deletedscore / WTscore) (bait LSB3) | Ratio (Deletedscore / WTscore) (bait PIN3) | Ratio (Deletedscore / WTscore) (bait MYO5) | Ratio (Deletedscore / WTscore) (bait RVS167) |
| --- | --- | --- | --- | --- | --- | --- | --- | --- |
| YML016C_1 (protein, UniProt P26570 2-692, looked up) Serine/threonine-protein …: GNSSSKSSKKDSHSNSSSRNPRPQVSRTETSHSVKSAKSNKSSRSRRSLPSSSTTNTNSNVPDPSTPSKPNLEVNHQRHSSHTNRYHFPSSSHSHSNSQNELLTTPSSSSTKRPSTSRRSSYNTKAAADLPPSMIQMEPKSPILKTNNSSTHVSKHKSSYSSTYYENALTDDDNDDKDNDISHTKRFSRSSNSRPSSIRSGSVSRRKSDVTHEEPNNGSYSSNNQENYLVQALTRSNSHASSLHSRKSSFGSDGNTAYSTPLNSPGLSKLTDHSGEYFTSNSTSSLNHHSSRDIYPSKHISNDDDIENSSQLSNIHASMENVNDKNNNITDSKKDPNEEFNDIMQSSGNKNAPKKFKKPIDIDETIQKLLDAGYAAKRTKNVCLKNNEILQICIKAREIFLSQPSLLELSPPVKIVGDVHGQYGDLLRLFTKCGFPPSSNYLFLGDYVDRGKQSLETILLLFCYKIKYPENFFLLRGNHECANVTRVYGFYDECKRRCNIKIWKTFIDTFNTLPLAAIVAGKIFCVHGGLSPVLNSMDEIRHVVRPTDVPDFGLINDLLWSDPTDSPNEWEDNERGVSYCYNKVAINKFLNKFGFDLVCRAHMVVEDGYEFFNDRSLVTVFSAPNYCGEFDNWGAVMSVSEGLLCSFELLDPLDSAALKQVMKKGRQERKLANQQQQMMETSITNDNESQQ | 0.8012 | 0.6049 | 0.8355 |  |  |  |  |  |
| YLR337C_1 (protein, UniProt P37370 1-817, looked up) Verprolin: MAGAPAPPPPPPPPALGGSAPKPAKSVMQGRDALLGDIRKGMKLKKAETNDRSAPIVGGGVVSSASGSSGTVSSKGPSMSAPPIPGMGAPQLGDILAGGIPKLKHINNNASTKPSPSASAPPIPGAVPSVAAPPIPNAPLSPAPAVPSIPSSSAPPIPDIPSSAAPPIPIVPSSPAPPLPLSGASAPKVPQNRPHMPSVRPAHRSHQRKSSNISLPSVSAPPLPSASLPTHVSNPPQAPPPPPTPTIGLDSKNIKPTDNAVSPPSSEVPAGGLPFLAEINARRSERGAVEGVSSTKIQTENHKSPSQPPLPSSAPPIPTSHAPPLPPTAPPPPSLPNVTSAPKKATSAPAPPPPPLPAAMSSASTNSVKATPVPPTLAPPLPNTTSVPPNKASSMPAPPPPPPPPPGAFSTSSALSASSIPLAPLPPPPPPSVATSVPSAPPPPPTLTTNKPSASSKQSKISSSSSSSAVTPGGPLPFLAEIQKKRDDRFVVGGDTGYTTQDKQEDVIGSSKDDNVRPSPISPSINPPKQSSQNGMSFLDEIESKLHKQTSSNAFNAPPPHTDAMAPPLPPSAPPPPITSLPTPTASGDDHTNDKSETVLGMKKAKAPALPGHVPPPPVPPVLSDDSKNNVPAASLLHDVLPSSNLEKPPSPPVAAAPPLPTFSAPSLPQQSVSTSIPSPPPVAPTLSVRTETESISKNPTKSPPPPPSPSTMDTGTSNSPSKNLKQRLFSTGGSTLQHKHNTHTNQPDVDVGRYTIGGSNSIVGAKSGNERIVIDDSRFKWTNVSQMPKPRPFQNKTKLYPSGKGSSVPLDLTLFT | 0.3637 |  | 0.5955 | 0.5725 | 0.8547 | 0.5606 |  |  |
| YGR281W_1 (protein, UniProt P53049 1-1477, looked up) Oligomycin resistance …: MTITVGDAVSETELENKSQNVVLSPKASASSDISTDVDKDTSSSWDDKSLLPTGEYIVDRNKPQTYLNSDDIEKVTESDIFPQKRLFSFLHSKKIPEVPQTDDERKIYPLFHTNIISNMFFWWVLPILRVGYKRTIQPNDLFKMDPRMSIETLYDDFEKNMIYYFEKTRKKYRKRHPEATEEEVMENAKLPKHTVLRALLFTFKKQYFMSIVFAILANCTSGFNPMITKRLIEFVEEKAIFHSMHVNKGIGYAIGACLMMFVNGLTFNHFFHTSQLTGVQAKSILTKAAMKKMFNASNYARHCFPNGKVTSFVTTDLARIEFALSFQPFLAGFPAILAICIVLLIVNLGPIALVGIGIFFGGFFISLFAFKLILGFRIAANIFTDARVTMMREVLNNIKMIKYYTWEDAYEKNIQDIRTKEISKVRKMQLSRNFLIAMAMSLPSIASLVTFLAMYKVNKGGRQPGNIFASLSLFQVLSLQMFFLPIAIGTGIDMIIGLGRLQSLLEAPEDDPNQMIEMKPSPGFDPKLALKMTHCSFEWEDYELNDAIEEAKGEAKDEGKKNKKKRKDTWGKPSASTNKAKRLDNMLKDRDGPEDLEKTSFRGFKDLNFDIKKGEFIMITGPIGTGKSSLLNAMAGSMRKTDGKVEVNGDLLMCGYPWIQNASVRDNIIFGSPFNKEKYDEVVRVCSLKADLDILPAGDMTEIGERGITLSGGQKARINLARSVYKKKDIYLFDDVLSAVDSRVGKHIMDECLTGMLANKTRILATHQLSLIERASRVIVLGTDGQVDIGTVDELKARNQTLINLLQFSSQNSEKEDEEQEAVVAGELGQLKYESEVKELTELKKKATEMSQTANSGKIVADGHTSSKEERAVNSISLKIYREYIKAAVGKWGFIALPLYAILVVGTTFCSLFSSVWLSYWTENKFKNRPPSFYMGLYSFFVFAAFIFMNGQFTILCAMGIMASKWLNLRAVKRILHTPMSYIDTTPLGRILNRFTKDTDSLDNELTESLRLMTSQFANIVGVCVMCIVYLPWFAIAIPFLLVIFVLIADHYQSSGREIKRLEAVQRSFVYNNLNEVLGGMDTIKAYRSQERFLAKSDFLINKMNEAGYLVVVLQRWVGIFLDMVAIAFALIITLLCVTRAFPISAASVGVLLTYVLQLPGLLNTILRAMTQTENDMNSAERLVTYATELPLEASYRKPEMTPPESWPSMGEIIFENVDFAYRPGLPIVLKNLNLNIKSGEKIGICGRTGAGKSTIMSALYRLNELTAGKILIDNVDISQLGLFDLRRKLAIIPQDPVLFRGTIRKNLDPFNERTDDELWDALVRGGAIAKDDLPEVKLQKPDENGTHGKMHKFHLDQAVEEEGSNFSLGERQLLALTRALVRQSKILILDEATSSVDYETDGKIQTRIVEEFGDCTILCIAHRLKTIVNYDRILVLEKGEVAEFDTPWTLFSQEDSIFRSMCSRSGIVENDFENRS | 0.5928 | 0.6055 | 0.4945 |  |  |  | 0.6948 |  |
| YHR114W_1 (protein, UniProt P38822 1-633, looked up) Protein BZZ1: MSADLSIGNEIKDSFKETHKWVQNNLKWLKDIEQFYRERAKLEKDYSERLSRLSAEYFNKKSSTSVPISVGDTPTTTPGSIEAAGVVAWNEILSQTDMISKDHDQLSTDFENHVANQLSGLFTKLDMTLSKINGFNNDMVNKKDNIYHELEKAKKDYDEACSTMEMARNRYTKASNDRNKKKLDEKEMEMNKCKNEYLIKINQANRTKDKYYFQDVPEVLDLLQDVNEAKTLFLNDLWLKAASVENDLGANVSKRLQAANSVVKQNKPSLNTAIFIKHNLKNWKEPQDFVYKPSPVWHDDEKFAVPSSLEVEDLRIKLAKAENDYNSLQDKTQNELSKLSTLNKIKHEMKTNEDNINATKFYDTLKEYLNVVSPFTSHETLKLQAEVQIESIQNNVPEEYDLSTDNIDLSKTKKKSGIFSKFKHNILNVDSKPSSGGSTGNGNGGPLHITSLFNTSRRTRLGSAPNNAGEDSDNNSIRTTSTNNTKKTTQNSSDDGKNKVLYAYVQKDDDEITITPGDKISLVARDTGSGWTKINNDTTGETGLVPTTYIRISSAATVKANDRGPAPEVPPPRRSTLPVRTMEAIYAYEAQGDDEISIDPGDIITVIRGDDGSGWTYGECDGLKGLFPTSYCK | 0.6315 |  | 0.5608 |  | 0.7048 |  | 0.7759 | 0.6256 |
| YLR196W_1 (protein, UniProt P21304 1-576, looked up) Periodic tryptophan protein 1: MISATNWVPRGFSSEFPEKYVLDDEEVERINQLAQLNLDDAKATLEEAEGESGVEDDAATGSSNKLKDQLDIDDDLKEYNLEEYDDEEIADNEGGKDVSMFPGLSNDSDVKFHEGEKGEDPYISLPNQEDSQEEKQELQVYPSDNLVLAARTEDDVSYLDIYVYDDGAGFHSSDIPVEEGDEADPDVARGLVRDPALYVHHDLMLPAFPLCVEWLDYKVGSNSEEAANYAAIGTFDPQIEIWNLDCVDKAFPDMILGEPLDNSMVSLKSKKKKKKSKTGHITTHHTDAVLSMAHNKYFRSVLASTSADHTVKLWDLNSGNAARSLASIHSNKNVSSSEWHMLNGSILLTGGYDSRVALTDVRISDESQMSKYWSAMAGEEIETVTFASENIILCGTDSGNVYSFDIRNNENRKPVWTLKAHDAGISTLCSNKFIPGMMSTGAMGEKTVKLWKFPLDDATNTKGPSMVLSRDFDVGNVLTSSFAPDIEVAGTMVIGGVNKVLKLWDVFTNRSVRKSFKSELENVQARAKEEAQKIGKSSRIARKYTSNDNPDTVITIDDQGEDEEEREGGDEHDDMA | 1.08 |  |  |  |  |  |  |  |
| YKL117W_1 (protein, UniProt P28707 2-216, looked up) Co-chaperone protein SBA1: SDKVINPQVAWAQRSSTTDPERNYVLITVSIADCDAPELTIKPSYIELKAQSKPHVGDENVHHYQLHIDLYKEIIPEKTMHKVANGQHYFLKLYKKDLESEYWPRLTKEKVKYPYIKTDFDKWVDEDEQDEVEAEGNDAAQGMDFSQMMGGAGGAGGAGGMDFSQMMGGAGGAGSPDMAQLQQLLAQSGGNLDMGDFKENDEEDEEEEIEPEVKA | 0.6627 |  |  |  |  |  |  |  |
